The assay addresses human EphA2 ligand-binding domain (LBD) (human) (UniProt P29317). The assay is described as follows: SPR. On the technique in general: SPR reads the build-up and loss of mass on a sensor chip optically.

Chain of EBV gHgL (Epstein-Barr virus glycoprotein H / glycoprotein L complex) (P03231 18-679): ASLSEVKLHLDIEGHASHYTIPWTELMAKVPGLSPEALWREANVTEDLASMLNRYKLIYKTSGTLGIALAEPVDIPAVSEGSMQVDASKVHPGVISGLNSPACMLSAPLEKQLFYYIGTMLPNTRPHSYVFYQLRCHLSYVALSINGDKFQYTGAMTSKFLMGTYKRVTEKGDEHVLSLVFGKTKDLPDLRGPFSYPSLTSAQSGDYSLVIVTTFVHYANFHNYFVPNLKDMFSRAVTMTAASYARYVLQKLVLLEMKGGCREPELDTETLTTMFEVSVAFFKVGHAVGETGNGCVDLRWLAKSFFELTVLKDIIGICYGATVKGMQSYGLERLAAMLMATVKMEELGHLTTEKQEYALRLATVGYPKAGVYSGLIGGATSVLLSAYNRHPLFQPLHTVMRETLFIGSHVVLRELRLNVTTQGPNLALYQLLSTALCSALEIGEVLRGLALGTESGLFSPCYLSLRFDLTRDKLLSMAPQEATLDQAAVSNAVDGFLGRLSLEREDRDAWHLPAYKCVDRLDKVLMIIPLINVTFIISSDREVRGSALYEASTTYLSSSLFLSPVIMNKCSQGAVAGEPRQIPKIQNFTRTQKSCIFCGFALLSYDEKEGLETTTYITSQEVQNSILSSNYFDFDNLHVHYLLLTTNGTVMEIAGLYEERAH
Chain of EBV gHgL (Epstein-Barr virus glycoprotein H / glycoprotein L complex) (P03212 24-137): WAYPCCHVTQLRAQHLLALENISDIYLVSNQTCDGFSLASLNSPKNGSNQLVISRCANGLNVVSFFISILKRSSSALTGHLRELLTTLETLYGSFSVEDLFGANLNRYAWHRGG
Chain of KSHV gHgL (Kaposi sarcoma-associated herpesvirus glycoprotein H / glycoprotein L complex) (F5HAK9 22-698): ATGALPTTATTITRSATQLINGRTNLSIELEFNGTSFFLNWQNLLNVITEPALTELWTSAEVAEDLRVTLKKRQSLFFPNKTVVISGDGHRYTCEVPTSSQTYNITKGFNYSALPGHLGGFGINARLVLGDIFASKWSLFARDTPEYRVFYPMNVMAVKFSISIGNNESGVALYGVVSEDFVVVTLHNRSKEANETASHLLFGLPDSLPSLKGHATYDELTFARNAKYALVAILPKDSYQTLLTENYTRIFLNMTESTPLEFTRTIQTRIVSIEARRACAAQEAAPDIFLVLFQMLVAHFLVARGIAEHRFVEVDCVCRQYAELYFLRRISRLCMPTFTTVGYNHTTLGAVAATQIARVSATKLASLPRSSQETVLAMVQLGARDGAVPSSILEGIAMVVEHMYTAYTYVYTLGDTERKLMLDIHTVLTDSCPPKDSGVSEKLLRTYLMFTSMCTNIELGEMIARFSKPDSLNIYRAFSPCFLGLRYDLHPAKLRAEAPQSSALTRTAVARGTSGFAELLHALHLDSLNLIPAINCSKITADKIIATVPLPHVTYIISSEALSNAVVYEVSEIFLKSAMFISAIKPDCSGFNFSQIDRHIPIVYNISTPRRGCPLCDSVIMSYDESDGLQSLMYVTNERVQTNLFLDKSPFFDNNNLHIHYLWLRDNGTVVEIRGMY
Chain of KSHV gHgL (Kaposi sarcoma-associated herpesvirus glycoprotein H / glycoprotein L complex) (F5HDB7 21-167): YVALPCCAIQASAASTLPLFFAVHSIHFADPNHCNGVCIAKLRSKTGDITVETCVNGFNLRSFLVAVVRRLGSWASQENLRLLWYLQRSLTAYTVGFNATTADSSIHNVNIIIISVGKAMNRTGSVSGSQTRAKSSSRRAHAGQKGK

For orientation: Kd means the concentration at which binding is half-saturated. Turning to “EBV gHgL (Epstein-Barr virus glycoprotein H / glycoprotein L complex) (from UniProt P03231;P03212)”, the Kd stood at 4120 nM.

“KSHV gHgL (Kaposi sarcoma-associated herpesvirus glycoprotein H / glycoprotein L complex) (from UniProt F5HAK9;F5HDB7)” yielded a Kd of 17.5 nM.

The values are drawn from publication PMC7687889.
